According to patent publication US20130116182A1, “Factor VIII B Cell Epitope Variants Having Reduced Immunogenicity” (priority 2009, published 2013):

Tests used:
CD4+ T cells [1] = test: Staining with peptide-loaded DR0101 tetramers (tetramer guided epitope mapping); assay type: cell-based, human; details: for Positive (individual peptide loaded tetramer staining): DR0101 tetramers, severe HA inhibitor subject 56A, day 18
Description: T-cell clones were obtained from blood samples from both brothers by staining CD4+ cells with fluorescent DR0101 tetramers that were loaded with peptide FVIII2194-2213, followed by single-cell sorting and expansion. Clones were expanded by stimulation with irradiated peripheral blood mononuclear cells (PBMCs) from an HLA-mismatched individual plus phytohemagglutinin (Remel, Lenexa, Kans.) in the presence of human IL-2 (Hemagen Diagnostics, Inc., Columbia, Md.). Clonality was confirmed by tetramer staining, multiplex PCR and sequencing of the VDJ region in the PCR products.
(§1) a. Added 1.5 μl PE-labeled tetramers (final concentration 10 μg/ml. b. Mixed by shaking the rack containing the FACS tubes. c. Incubated the cells with tetramer for 1 hr in the 37 C 5% CO2 incubator.
(§2) a. Incubated tubes in the refrigerator for >5 min. b. Made an antibody cocktail consisting of 3.75 μl anti-CD4-APC, 3.75 μl anti-CD3-PerCP, 3.75 μl anti-CD25-FITC per sample. 3.75 ul×50=187.5 ul. c. Added 3.75 μl control antibodies to 75 μl control cells (1 —unstained; 2—anti-CD4-FITC; 3—anti-CD4-PE; 4—anti-CD3-PerCP; 5—anti-CD4-APC). d. Added 11.25 μl antibody cocktail to each sample. e. Incubated all samples at 4 C (put in the refrigerator) for 20 min in the dark.
(§3) a. Added 2 ml cold FACS wash buffer to each tube. b. Centrifuged at 1200 rpm, 10 min, 4 C, low brake in the Beckman Coulter Allegra 6KR centrifuge. c. Decanted the supernatant. d. Resuspended in 200 μl FACS wash buffer. e. Stored tubes in a covered ice container for FACS analysis.
(§4) a. Added 1.5 μl PE-labeled tetramers (final concentration 10 μg/ml). b. Mixed by shaking the rack containing the FACS tubes. c. Incubated the cells with tetramer for 1 hr in the 37 C 5% CO2 incubator.
as §2, with “ul×55=206.25 ul (For the CD25-FITC Ab, I opened a new vial (Lot #E016414)—taking 100 ul from this lot.)” for “ul×50=187.5 ul.”
(§5) a. Added 2 ml cold FACS wash buffer to each tube. b. Centrifuged at 1200 rpm, 10 min, 4 C, low brake in the Beckman Coulter Allegra 6KR centrifuge. c. Decanted the supernatant. d. Resuspended in 250 μl FACS wash buffer. e. Stored tubes in a covered ice container for FACS analysis.

CD4+ T cells [2] = test: Staining with peptide-loaded DR1001 tetramers (tetramer guided epitope mapping); assay type: cell-based, human; details: for Positive (individual peptide loaded tetramer staining): DR1001 tetramers, severe HA inhibitor subject 56A, day 18
Protocol: as §1, §2, §3, §4
as §2, with “ul×55=206.25 ul (For the CD25-FITC Ab, I opened a new vial (Lot #E016414)—taking 100 ul from this lot.)” for “ul×50=187.5 ul.”
as §5

BO2C11 Fab fragment = test: SPR, BO2C11 Fab on chip, 25 C, 1:1 model

| Substance | Positive (individual peptide loaded tetramer staining) (CD4+ T cells [1]) | Positive (individual peptide loaded tetramer staining) (CD4+ T cells [2]) | Kd (BO2C11 Fab fragment) | koff (BO2C11 Fab fragment) | kon (BO2C11 Fab fragment) | tetramer staining (CD4+ T cells [1]; loaded on DR0101, subject 56A) | tetramer staining (CD4+ T cells [2]; loaded on DR1001, subject 56A) |
| --- | --- | --- | --- | --- | --- | --- | --- |
| DLNSCSMPLGMESKAISDAQ [Mutant C2-1] | no |  |  |  |  |  |  |
| DPRCLTRYYSSFVNMERDLA [Mutant A2-20] | no | no |  |  |  |  |  |
| FPILPGEIFKYKWTVTVEDG [Mutant A2-17] | no | no |  |  |  |  |  |
| FSWIKVDLLAPMIIHGIKTQ [Mutant C1-11] | no | no |  |  |  |  |  |
| FVIII C2 domain protein A2201P (from UniProt P00451 2189-2351) |  |  | 19 pM | 0.00016 s⁻¹ | 8.4e+06 M⁻¹ s⁻¹ |  |  |
| FVIII C2 domain protein E2181A (from UniProt P00451 2189-2351) |  |  | 8.6 pM | 0.00019 s⁻¹ | 2.2e+07 M⁻¹ s⁻¹ |  |  |
| FVIII C2 domain protein E2327A (from UniProt P00451 2189-2351) |  |  | 2.6 pM | 5.4e-05 s⁻¹ | 2.1e+07 M⁻¹ s⁻¹ |  |  |
| FVIII C2 domain protein H2211A (from UniProt P00451 2189-2351) |  |  | 5.4 pM | 3.8e-05 s⁻¹ | 7.1e+06 M⁻¹ s⁻¹ |  |  |
| FVIII C2 domain protein H2269A (from UniProt P00451 2189-2351) |  |  | 7.7 pM | 0.00017 s⁻¹ | 2.2e+07 M⁻¹ s⁻¹ |  |  |
| FVIII C2 domain protein H2309A (from UniProt P00451 2189-2351) |  |  | 1.9 pM | 2.9e-05 s⁻¹ | 1.5e+07 M⁻¹ s⁻¹ |  |  |
| FVIII C2 domain protein H2315A (from UniProt P00451 2189-2351) |  |  | 4.9 pM | 7.3e-05 s⁻¹ | 1.5e+07 M⁻¹ s⁻¹ |  |  |
| FVIII C2 domain protein K2207A (from UniProt P00451 2189-2351) |  |  | 13 pM | 5.9e-05 s⁻¹ | 4.6e+06 M⁻¹ s⁻¹ |  |  |
| FVIII C2 domain protein K2227A (from UniProt P00451 2189-2351) |  |  | 3.4 pM | 6.4e-05 s⁻¹ | 1.9e+07 M⁻¹ s⁻¹ |  |  |
| FVIII C2 domain protein K2227Q (from UniProt P00451 2189-2351) |  |  | 2.9 pM | 2e-05 s⁻¹ | 6.8e+06 M⁻¹ s⁻¹ |  |  |
| FVIII C2 domain protein K2249A (from UniProt P00451 2189-2351) |  |  | 6.1 pM | 3.7e-05 s⁻¹ | 6.1e+06 M⁻¹ s⁻¹ |  |  |
| FVIII C2 domain protein K2279A (from UniProt P00451 2189-2351) |  |  | 26 pM | 0.00019 s⁻¹ | 7.2e+06 M⁻¹ s⁻¹ |  |  |
| FVIII C2 domain protein L2212A (from UniProt P00451 2189-2351) |  |  | 1.9 pM | 4.4e-05 s⁻¹ | 2.3e+07 M⁻¹ s⁻¹ |  |  |
| FVIII C2 domain protein L2273A (from UniProt P00451 2189-2351) |  |  | 15 pM | 0.00017 s⁻¹ | 1.1e+07 M⁻¹ s⁻¹ |  |  |
| FVIII C2 domain protein L2302A (from UniProt P00451 2189-2351) |  |  | 2.4 pM | 5.7e-05 s⁻¹ | 2.4e+07 M⁻¹ s⁻¹ |  |  |
| FVIII C2 domain protein N2224A (from UniProt P00451 2189-2351) |  |  | 2.7 pM | 8.6e-05 s⁻¹ | 3.2e+07 M⁻¹ s⁻¹ |  |  |
| FVIII C2 domain protein N2225A (from UniProt P00451 2189-2351) |  |  | 2.4 pM | 3.9e-05 s⁻¹ | 1.6e+07 M⁻¹ s⁻¹ |  |  |
| FVIII C2 domain protein N2277A (from UniProt P00451 2189-2351) |  |  | 5 pM | 6e-05 s⁻¹ | 1.2e+07 M⁻¹ s⁻¹ |  |  |
| FVIII C2 domain protein P2300L (from UniProt P00451 2189-2351) |  |  | 5.3 pM | 9.5e-05 s⁻¹ | 1.8e+07 M⁻¹ s⁻¹ |  |  |
| FVIII C2 domain protein Q2213A (from UniProt P00451 2189-2351) |  |  | 4.4 pM | 6.1e-05 s⁻¹ | 1.4e+07 M⁻¹ s⁻¹ |  |  |
| FVIII C2 domain protein Q2222A (from UniProt P00451 2189-2351) |  |  | 5.3 pM | 3.9e-05 s⁻¹ | 7.4e+06 M⁻¹ s⁻¹ |  |  |

| Substance | Positive (individual peptide loaded tetramer staining) (CD4+ T cells [1]) | Positive (individual peptide loaded tetramer staining) (CD4+ T cells [2]) | Kd (BO2C11 Fab fragment) | koff (BO2C11 Fab fragment) | kon (BO2C11 Fab fragment) | tetramer staining (CD4+ T cells [1]; loaded on DR0101, subject 56A) | tetramer staining (CD4+ T cells [2]; loaded on DR1001, subject 56A) |
| --- | --- | --- | --- | --- | --- | --- | --- |
| FVIII C2 domain protein Q2270A (from UniProt P00451 2189-2351) |  |  | 1.5 pM | 0.00018 s⁻¹ | 1.2e+08 M⁻¹ s⁻¹ |  |  |
| FVIII C2 domain protein Q2311A (from UniProt P00451 2189-2351) |  |  | 3 pM | 6.8e-05 s⁻¹ | 2.3e+07 M⁻¹ s⁻¹ |  |  |
| FVIII C2 domain protein Q2316A (from UniProt P00451 2189-2351) |  |  | 25 pM | 0.00032 s⁻¹ | 1.3e+07 M⁻¹ s⁻¹ |  |  |
| FVIII C2 domain protein R2304H (from UniProt P00451 2189-2351) |  |  | 9.2 pM | 9.2e-05 s⁻¹ | 1e+07 M⁻¹ s⁻¹ |  |  |
| FVIII C2 domain protein R2307Q (from UniProt P00451 2189-2351) |  |  | 4.7 pM | 9e-05 s⁻¹ | 1.9e+07 M⁻¹ s⁻¹ |  |  |
| FVIII C2 domain protein S2173I (from UniProt P00451 2189-2351) |  |  | 7.3 pM | 0.00011 s⁻¹ | 1.5e+07 M⁻¹ s⁻¹ |  |  |
| FVIII C2 domain protein T2202A (from UniProt P00451 2189-2351) |  |  | 5.8 pM | 3.5e-05 s⁻¹ | 6e+06 M⁻¹ s⁻¹ |  |  |
| FVIII C2 domain protein T2253A (from UniProt P00451 2189-2351) |  |  | 9.8 pM | 5.2e-05 s⁻¹ | 5.3e+06 M⁻¹ s⁻¹ |  |  |
| FVIII C2 domain protein T2272A (from UniProt P00451 2189-2351) |  |  | 4.2 pM | 5.4e-05 s⁻¹ | 1.3e+07 M⁻¹ s⁻¹ |  |  |
| FVIII C2 domain protein V2223M (from UniProt P00451 2189-2351) |  |  | 6.3 pM | 3.6e-05 s⁻¹ | 5.7e+06 M⁻¹ s⁻¹ |  |  |
| FVIII C2 domain protein W2313Y (from UniProt P00451 2189-2351) |  |  | 11 pM | 8.7e-05 s⁻¹ | 8.2e+06 M⁻¹ s⁻¹ |  |  |
| IFKYKWTVTVEDGPTKSDPR [Mutant A2-18] | yes | yes |  |  |  | Very strong staining | Very strong staining |
| IKTQGARQKFSSLYISQFII [Mutant C1-13] | no | no |  |  |  |  |  |
| KEFLISSSQDGHQWTLFFQN [Mutant C2-12] |  | no |  |  |  |  |  |
| KFSSLYISQFIIMYSLDGKK [Mutant C1-14] | no | no |  |  |  |  |  |
| KGVKHLKDFPILPGEIFKYK [Mutant A2-16] | no | no |  |  |  |  |  |
| KVFQGNQDSFTPVVNSLDPP [Mutant C2-15] |  | no |  |  |  |  |  |
| LAPMIIHGIKTQGARQKFSS [Mutant C1-12] | no | no |  |  |  |  |  |
| LFFQNGKVKVFQGNQDSFTP [Mutant C2-14] |  | no |  |  |  |  |  |
| LGMESKAISDAQITASSYFT [Mutant C2-2] | no |  |  |  |  |  |  |
| QFIIMYSLDGKKWQTYRGNS [Mutant C1-15] | no | no |  |  |  |  |  |
| SDAQITASSYFTNMFATWSP [Mutant C2-3B] | weak |  |  |  |  |  |  |
| SLLTSMYVKEFLISSSQDGH [Mutant C2-11] |  | no |  |  |  |  |  |
| SQDGHQWTLFFQNGKVKVFQ [Mutant C2-13] |  | no |  |  |  |  |  |
| VEDGPTKSDPRCLTRYYSSF [Mutant A2-19] | no | no |  |  |  |  |  |
